From patent publication US12497460B2, “Anti-MSR1 antibodies and methods of use thereof” (REGENERON PHARMACEUTICALS, INC., priority 2018, dated 2025)

T1: His9-hMSR1 (human MSR1 extracellular domain) (Homo sapiens, UniProt P21757)
T1 construct: human MSR1 extracellular domain expressed with a N-terminal nonahistidine tag; His9 (nonahistidine) (N); purchased R&D Systems 2708-MS
T1 sequence (P21757 77-451 limits assumed): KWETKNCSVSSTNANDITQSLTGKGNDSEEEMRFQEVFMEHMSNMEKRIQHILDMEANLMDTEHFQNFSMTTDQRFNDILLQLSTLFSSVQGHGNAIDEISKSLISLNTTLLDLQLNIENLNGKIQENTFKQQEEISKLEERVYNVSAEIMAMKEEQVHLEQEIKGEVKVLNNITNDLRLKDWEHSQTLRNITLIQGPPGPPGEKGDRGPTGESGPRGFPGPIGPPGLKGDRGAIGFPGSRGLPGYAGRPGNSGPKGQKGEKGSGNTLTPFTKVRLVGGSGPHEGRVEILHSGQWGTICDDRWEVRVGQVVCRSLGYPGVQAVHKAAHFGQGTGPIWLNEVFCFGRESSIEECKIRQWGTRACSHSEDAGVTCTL


Columns and labels:
[1] = molecular target: T1, His9-hMSR1 (human MSR1 extracellular domain); experiment: Biacore T200 surface plasmon resonance binding kinetics of anti-MSR1 antibody-drug conjugates and parental antibodies; conditions: 25° C.; for kd: * = no dissociation observed, kd manually fixed at 1.00E−05
Protocol: The MSR1 antibodies disclosed herein were conjugated to various liver X receptor (LXR) payloads or various steroid payloads. This example describes how equilibrium dissociation constant (KD) values for human MSR1 reagents binding to human anti-MSR1 antibody-drug conjugates and their corresponding unconjugated parental antibodies were determined using a real-time surface plasmon resonance-based Biacore T200 biosensor.
All binding studies were performed in 10 mM HEPES, 300 mM NaCl, 3 mM EDTA, and 0.05% v/v Surfactant Tween-20, pH 7.4 (HBS-ET) running buffer at 25° C. The Biacore CM4 sensor chip surface was first derivatized by amine coupling with the goat anti-human Fcγ specific polyclonal antibody (Jackson ImmunoResearch Laboratories, Cat #BR-1008-39) to capture anti-MSR1 monoclonal antibodies. Binding studies were performed on human MSR1 extracellular domain expressed with a N-terminal nonahistidine tag (His9-hMSR1; R&D Systems, Cat #2708-MS).
The association rate (ka) and dissociation rate (kd) were determined by fitting the real-time binding sensorgrams to a 1:1 binding model with mass transport limitation using Scrubber 2.0c curve-fitting software. Binding dissociation equilibrium constant (KD) and dissociative half-life (t½) were calculated from the kinetic rates as: […]
Binding kinetics parameters for His9-hMSR1 binding to different anti-MSR1 antibody-LXR ADCs and their unconjugated parental antibodies at 25° C. are shown in Table 19. “LP1” represents a linker-payload for which the payload structure is provided in Example 11.
The binding studies were repeated with anti-MSR1 antibody H1H21234-N297Q and steroid linker payloads (LPs). “LP3” represents a linker-payload for which the structure is provided in Example 23, and “LP13” represents a linker-payload for which the structure is provided in Example 24.

LXR (THP1/LXR-Luc cells) = experiment: LXR-luciferase reporter bioassay (Example 31); assay type: cell-based, human; conditions: 48 hours; for EC50: differentiated THP1/LXR-Luc cells; for S/N: signal to noise, ratio of RLU of standard one over standard eight
Excerpt: Generation of assay cell line. To test the efficacy of anti-MSR1 antibody-LXR conjugates in vitro, a cell-based LXR responsive luciferase reporter assay was developed. To generate the assay cell line, a LXR regulated luciferase reporter gene [Cignal Lenti LXR Reporter (luc) kit (Qiagen, Cat #CLS-001 L)] was transduced into THP1 cells, and cells were selected for two weeks in puromycin. The lentivirus expresses the firefly luciferase gene under the control of a minimal CMV promoter and tandem repeats of the LXR transcriptional response element. The resulting cell line is referred to as THP1/LXR-Luc cells.
Assay protocol. THP1/LXR-Luc cells were seeded onto 96 well plates at 40,000 cells/well in media containing RPMI supplemented with 10% FBS and pencillin/streptomycin and subsequently differentiated with 200 nM Phorbol Myristate Acetate (PMA) for 3 days. After the 3-day differentiation period, three-fold serial dilutions of antibody drug conjugates, unconjugated antibodies, or free payloads in fresh media were added to the cells at final concentration ranging from 100 nM to 0.01 nM. Media alone served as a blank control. Forty-eight hours later, luciferase activity was determined after the addition of One-Glo™ reagent (Promega, Cat #E6130) to each well. Relative light units (RLUs) were measured on a Victor luminometer (PerkinElmer) and EC50 values were determined using a four-parameter logistic equation over a 10-point dose response curve (GraphPad Prism). The signal to noise (S/N) was determined by calculating the ratio of RLU of standard one over RLU of standard eight for each of the unconjugated anti-MSR1 antibodies or free payloads. “LP #” represents a linker-payload for which the corresponding structures are provided elsewhere herein, and “P #” represents a payload for which the corresponding structures are provided elsewhere herein.

[2] = Table 19, antibody-LXR ADCs and unconjugated antibodies

Molecule	ka [1, 2]	kd ([1]; Table 19)	EC50 (LXR (THP1/LXR-Luc cells))	S/N (LXR (THP1/LXR-Luc cells))	ka ([1]; Table 20, antibody-steroid ADCs and unconjugated antibody)	kd ([1]; Table 20)
H1H27731P-N297Q-LP1 (conjugate) VH: QLQLQESGPGLVKPSETLSLTCTVSGGSISRISYYWGWIRQPPGKGLEWIGSIYDSGSTYYNPSLKSRVTISIDTSKNQFSLKLSSVTAADTAVYYCVRYSSSSAFAFDYWGQGTLVTVSS VL: DIQMTQSPSSVSASVGDRVTITCRASQGISSWLAWYQQKPGKAPKLLIYAASSLQSGVPSRFSGSGSGTDFTLTISSLQPEDFATYYCQQANSFPFTFGPGTKVDIKR	128000 M⁻¹ s⁻¹	1.00E−05* s^−1	1.46 nM	15.5	–	–
H1H27734P-N297Q-LP1 (conjugate) VH: EVQLVESRGGLVQPGGSLRLSCAASGFTFSSYAMSWVRQAPGKGLEWVSAISGSGGSTFYADSVKGRFTISRDNSKNTVYLQMNSLRAEDTAVYYCAKALVLRFLEWLGDYWGQGTLVTVSS VL: DIQMTQSPSTLSASVGDRVTITCRASQSISSWLAWFQQKPGKAPKLLIYKASSLESGVPSRFSGSGSGTEFTLTISSLQPDDFATYYCQQYKSYWTFGQGTKVEIKR	69300 M⁻¹ s⁻¹	0.000449 s⁻¹	5.19 nM	17.8	–	–
H1H27739P-N297Q-LP1 (conjugate) VH: EVQLVESGGGLVQPGGSLRLSCTASGFTFSSYAMSWVRQAPGKGLEWVSAISGTGSSTYFTDSVKGRFAISRDNSKNTLYLQMNSLRAEDTAVYYCAKDGEWLSTVTLFDYWGQGTLVTVSS VL: EIVMTQSPATLSVSPGERATLSCRASQSVSSNLAWYQQKPGQAPRLLIYGASTRATGIPARFSGSGSGTDFTLTISSLQSEDFALYYCQQYFIWPPHPTFGPGTKVDIKR	88800 M⁻¹ s⁻¹	0.000722 s⁻¹	1.6 nM	21.0	–	–
H1H27747P-N297Q-LP1 (conjugate) VH: QVQLVESGGAVVQPGRSLRLSCAASGFTFSYYGMHWVRQAPGKGLEWVAVISYDGSKKYYADSVKGRFTISRDNSKNTLYLQMNSLRAEDTAVYYCAKDLTVDFYYGMDVWGQGTTVTVSS VL: DIQMTQSPSSVSASVGDRVTITCRASQGISSWLAWYQQKPGKAPKLLIYATSSLQSGAPSRFSGSGSGTDFTLTISSLQPEDFATYFCQQANSFPYTFGQGTKLEIKR	136000 M⁻¹ s⁻¹	0.000203 s⁻¹	4.77 nM	20.6	–	–
H1H27754P-N297Q-LP1 (conjugate) VH: EVQLVESGGGLVQPGGSLRLSCAASGFTFRTYAMTWVRQAPGKGLDWVSAITGDGGNTYYADSVKGRFTISRDNSKNTLYLQMNSLRAEDTAIYYCAKDQRFSFALYYFDYWGQGTLVTVSS VL: DIQMTQSPSSVSASVGDRVTITCRASQGISSWLAWYQQKPGNAPKLLIYAAFSLQSGVPSRFSGSGSGTDFTLTISSLQPEDFATYYCQQANNFPWTFGQGTKVEIKR	177000 M⁻¹ s⁻¹	1.00E−05* s^−1	1.3 nM	17.3	–	–
H1H27729P-N297Q-LP1 (conjugate) VH: QVQLVESGGGLVKPGGSLRLSCAASGFIFSDYYMSWIRQAPGKGLEWVSYISSSGTTIYGDSVKGRFTMSRDNAKNSLYLQMNSLRAEDTAVYYCARNYALFDYWGQGTLVTVSS VL: DIQMTQSPSSLSASVGDRVTITCQASQDISKYLNWYQQKPGKAPKLLIYYTSNLETGVPSRFSGSGSGTDFTFTISSLQPEDIATYYCHQSDYLPFTFGPGTKVDIKR	54700 M⁻¹ s⁻¹	0.000718 s⁻¹	1.64 nM	14.5	–	–
H1H21234N-N297Q-LP3 (conjugate) VH: QVQLQESGPGLVKPSETLSLTCTVTGGSISRNYWSWIRQPPGKGLEWIGYIYYSGSIDYNPSLKSRVTISVDTSKNQFSLKLSSMTAADTAVYYCARDRWNWKYGMDVWGQGTTVIVSS VL: EIVLTQSPGTLSLSPGERATLSCRASQTVRNNYLAWYHQKPGQAPRLLIYGASSRATGIPDRFSGSGSGTDFTLTISRLEPEDFTVYYCHQYGNSPWTFGQGTKMEIKR	–	–	–	–	417000 M⁻¹ s⁻¹	1e-05 s⁻¹
